# Substitutions are numbered along the chain they refer to.
# T1: recombinant human OX40L protein (R&D Systems, cat. #1054-OX) (human, UniProt P23510 51-183)
# T1 sequence: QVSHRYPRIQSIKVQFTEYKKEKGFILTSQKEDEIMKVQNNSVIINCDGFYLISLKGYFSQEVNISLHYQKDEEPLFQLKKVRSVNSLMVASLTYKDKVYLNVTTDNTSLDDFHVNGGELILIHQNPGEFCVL
# T2: AVI-GST-His6-hOX40L (human, UniProt P23510 51-183)
# T2 sequence: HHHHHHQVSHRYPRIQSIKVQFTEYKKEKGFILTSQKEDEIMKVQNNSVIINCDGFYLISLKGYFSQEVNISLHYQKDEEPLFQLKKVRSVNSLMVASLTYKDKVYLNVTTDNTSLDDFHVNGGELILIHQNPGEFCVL
# B1: 95B06 (FcFab) (antibody)
# chain 1: EPKSSDKTHTCPPCPAPPVAGPSVFLFPPKPKDTLMISRTPEVTCVVVDVSHEDPEVKFNWYVDGVEVHNAKTKPREEQYNSTYRVVSVLTVLHQDWLNGKEYKCAVSNKALPSSIEKTISKAKGQPREPQVYTLPPSREEMTKNQVSLTCLVKGFYPSDIAVEWESNGQPENNYKTTPPVLDSDGSFFLYSKLTVDKSRWQQGNVFSCSVMHEALHNHYTQKSLSLSPGAGGGGSGGGGSGGGGSEVQLLESGGGLVQPGGSLRLSCAASGFTFSSYAMTWVRQAPGKGLEWVSDISGSGGSTKYADSVKGRFTISRDNPKNTLYLQMNSLRAEDTAVYYCAKDLGFYSTWDTDYWGQGTLVTVSSASTKGPSVFPLAPSSKSTSGGTAALGCLVKDYFPEPVTVSWNSGALTSGVHTFPAVLQSSGLYSLSSVVTVPSSSLGTQTYICNVNHKPSNTKVDKRVEPKSC
# chain 2: DMQMTQSPSSLSASVGDRVTITCRASQGIRNDLDWYQQKPGKVPKRLIHAASSLQSGVPSRFSGSGSGTEFTLTISSLQPEDFVTYYCLQHNTYPWTFGQGTKLEIKRTVAAPSVFIFPPSDEQLKSGTASVVCLLNNFYPREAKVQWKVDNALQSGNSQESVTEQDSKDSTYSLSSTLTLSKADYEKHKVYACEVTHQGLSSPVTKSFNRGEC
# B2: 68F03 (FcFab) (antibody)
# chain 1: EPKSSDKTHTCPPCPAPPVAGPSVFLFPPKPKDTLMISRTPEVTCVVVDVSHEDPEVKFNWYVDGVEVHNAKTKPREEQYNSTYRVVSVLTVLHQDWLNGKEYKCAVSNKALPSSIEKTISKAKGQPREPQVYTLPPSREEMTKNQVSLTCLVKGFYPSDIAVEWESNGQPENNYKTTPPVLDSDGSFFLYSKLTVDKSRWQQGNVFSCSVMHEALHNHYTQKSLSLSPGAGGGGSGGGGSGGGGSQLQLQESGPGLVKPSETLSLTCTVSGGSIDTSSQYWAWIRQPPGKGLEWIGGIYFSGSTYQNPSLKSRVTTSVDTSKNQFSLRLSSMTAADTAVYYCARHRGIYFFDYWGQGTLVTVSSASTKGPSVFPLAPSSKSTSGGTAALGCLVKDYFPEPVTVSWNSGALTSGVHTFPAVLQSSGLYSLSSVVTVPSSSLGTQTYICNVNHKPSNTKVDKRVEPKSC
# chain 2: SFELTQPLSVSVALGQTARITCGGINIENKNVHYYQQKPGQAPVLVIYRDTNRPSGIPERFSGSNSGNTATLTISRAQAGDEADYYCQVWDSNTVIFGGGTKVTVLGQPKAAPSVTLFPPSSEELQANKATLVCLISDFYPGAVTVAWKADSSPVKAGVETTTPSKQSNNKYAASSYLSLTPEQWKSHKSYSCQVTHEGSTVEKTVAPTECS
# B3: 30F02 (FcFab) (antibody)
# chain 1: EPKSSDKTHTCPPCPAPPVAGPSVFLFPPKPKDTLMISRTPEVTCVVVDVSHEDPEVKFNWYVDGVEVHNAKTKPREEQYNSTYRVVSVLTVLHQDWLNGKEYKCAVSNKALPSSIEKTISKAKGQPREPQVYTLPPSREEMTKNQVSLTCLVKGFYPSDIAVEWESNGQPENNYKTTPPVLDSDGSFFLYSKLTVDKSRWQQGNVFSCSVMHEALHNHYTQKSLSLSPGAGGGGSGGGGSGGGGSQLQLQESGPGLVKPSETLSLTCTVSGASISSSNHYWGWGWIRQPPGKGLEWIGSIYYSGNTYYNPSLKSRVTISVDTSKNQFSLKLSSVTAADTAVYYCARHRGSYFFDHWGQGTLVTVSSASTKGPSVFPLAPSSKSTSGGTAALGCLVKDYFPEPVTVSWNSGALTSGVHTFPAVLQSSGLYSLSSVVTVPSSSLGTQTYICNVNHKPSNTKVDKRVEPKSC
# chain 2: SYVLTQPLSVSVALGQTARITCGGNNIGDKNVHWYQQKPGQAPVLVISRDSNRPSGIPERFSGSNSGNTATLTISRAQAGDESDYYCQVWDSSTVVFGGGTKVTVLGQPKAAPSVTLFPPSSEELQANKATLVCLISDFYPGAVTVAWKADSSPVKAGVETTTPSKQSNNKYAASSYLSLTPEQWKSHKSYSCQVTHEGSTVEKTVAPTECS
# B4: 98E10 (FcFab) (antibody)
# heavy: EPKSSDKTHTCPPCPAPPVAGPSVFLFPPKPKDTLMISRTPEVTCVVVDVSHEDPEVKFNWYVDGVEVHNAKTKPREEQYNSTYRVVSVLTVLHQDWLNGKEYKCAVSNKALPSSIEKTISKAKGQPREPQVYTLPPSREEMTKNQVSLTCLVKGFYPSDIAVEWESNGQPENNYKTTPPVLDSDGSFFLYSKLTVDKSRWQQGNVFSCSVMHEALHNHYTQKSLSLSPGAGGGGSGGGGSGGGGSQLQLQESGPGLVKPSETLSLTCTVAGASVSSSSYYWGWIRQSPGKGLEWIGTINYGGSTYHNPSLKRRVTVSVDTSKNQFSLKLTSVTAADTAVYYCARHRGIYHFDYWGQGTLVTVSSASTKGPSVFPLAPSSKSTSGGTAALGCLVKDYFPEPVTVSWNSGALTSGVHTFPAVLQSSGLYSLSSVVTVPSSSLGTQTYICNVNHKPSNTKVDKRVEPKSC
# light: B2 chain 2 with F2Y, I25N, Y34W, K38M, T51S, S75N, I96V
# B5: 89B09 (FcFab) (antibody)
# heavy: EPKSSDKTHTCPPCPAPPVAGPSVFLFPPKPKDTLMISRTPEVTCVVVDVSHEDPEVKFNWYVDGVEVHNAKTKPREEQYNSTYRVVSVLTVLHQDWLNGKEYKCAVSNKALPSSIEKTISKAKGQPREPQVYTLPPSREEMTKNQVSLTCLVKGFYPSDIAVEWESNGQPENNYKTTPPVLDSDGSFFLYSKLTVDKSRWQQGNVFSCSVMHEALHNHYTQKSLSLSPGAGGGGSGGGGSGGGGSEVQLVESGPGLVKPSETLSLTCTVSGVSIRSNGYYWGWIRQSPGKGLEWIGNMDYSGTYQNPSLTSRVTISGDASKNQFSLKLRSVTAADTAVYFCARERSNNWYPIDYWGQGTLVTVSSASTKGPSVFPLAPSSKSTSGGTAALGCLVKDYFPEPVTVSWNSGALTSGVHTFPAVLQSSGLYSLSSVVTVPSSSLGTQTYICNVNHKPSNTKVDKRVEPKSC
# light: SSELTQDPAVSVALGQTVRITCQGDSVRRFFAHWYQQKPGQAPILVISGKDTRPSGIPDRFSGSISGNTASLTITGAQAEDEADYYCNSRDSSGYLVLFGGGTKLTVLGQPKAAPSVTLFPPSSEELQANKATLVCLISDFYPGAVTVAWKADSSPVKAGVETTTPSKQSNNKYAASSYLSLTPEQWKSHKSYSCQVTHEGSTVEKTVAPTECS
# B6: 88B06 (FcFab) (antibody)
# chain 1: EPKSSDKTHTCPPCPAPPVAGPSVFLFPPKPKDTLMISRTPEVTCVVVDVSHEDPEVKFNWYVDGVEVHNAKTKPREEQYNSTYRVVSVLTVLHQDWLNGKEYKCAVSNKALPSSIEKTISKAKGQPREPQVYTLPPSREEMTKNQVSLTCLVKGFYPSDIAVEWESNGQPENNYKTTPPVLDSDGSFFLYSKLTVDKSRWQQGNVFSCSVMHEALHNHYTQKSLSLSPGAGGGGSGGGGSGGGGSEVQLLESGGGLVQPGGSLRLSCAASGFTFSNYAMSWVRQAPGKGLEWVSVISGSGDSTYYAESVKGRFTISRDNSKNTLYLQMTSLRAEDTAEYYCAKDRTPVYGLDVWGQGTTVTVSSASTKGPSVFPLAPSSKSTSGGTAALGCLVKDYFPEPVTVSWNSGALTSGVHTFPAVLQSSGLYSLSSVVTVPSSSLGTQTYICNVNHKPSNTKVDKRVEPKSC
# chain 2: SYELTQPLSVSVALGQTARISCGGNNIGRKNVHWYQQKPGQAPVLVIYGDSNRPSGIPERFSGSNSGNTATLTIGRAQAGDEADYYCQVWDSSTVFGGGTKLTVLGQPKAAPSVTLFPPSSEELQANKATLVCLISDFYPGAVTVAWKADSSPVKAGVETTTPSKQSNNKYAASSYLSLTPEQWKSHKSYSCQVTHEGSTVEKTVAPTECS
# B7: 98C01 (FcFab) (antibody)
# heavy: EPKSSDKTHTCPPCPAPPVAGPSVFLFPPKPKDTLMISRTPEVTCVVVDVSHEDPEVKFNWYVDGVEVHNAKTKPREEQYNSTYRVVSVLTVLHQDWLNGKEYKCAVSNKALPSSIEKTISKAKGQPREPQVYTLPPSREEMTKNQVSLTCLVKGFYPSDIAVEWESNGQPENNYKTTPPVLDSDGSFFLYSKLTVDKSRWQQGNVFSCSVMHEALHNHYTQKSLSLSPGAGGGGSGGGGSGGGGSQVQLQESGPGLVKPSETLSLTCTVSGGSISSSSYYWGWIRQPPGKGLEWIGGIGSVDYSGNTYYKPSLKSRVTISVDTSKNQFSLKLSSVTAADTAVYHCARHRGIYFFDYWGQGTLVTVSSASTKGPSVFPLAPSSKSTSGGTAALGCLVKDYFPEPVTVSWNSGALTSGVHTFPAVLQSSGLYSLSSVVTVPSSSLGTQTYICNVNHKPSNTKVDKRVEPKSC
# light: B2 chain 2 with F2Y, L8P, I25N, Y34W, T51S, T73S, S75N, I96V, V103L
# Target: T1, recombinant human OX40L protein (R&D …)
# Test: cell-based or functional assay
row,Binder,Primary T cell activation assay IC50 [nM]
1,B1,38
2,B2,15.6
3,B3,2.9
4,B4,5.3
5,B5,6.1
6,B6,> 161

# Target: T2, AVI-GST-His6-hOX40L
# Test: cell-based or functional assay
row,Binder,OX40L neutralization/OX40-HEK Reporter IC50 [nM]
1,B1,30.8
2,B7,5.4
3,B2,5.5
4,B3,52.8
5,B4,5.7
6,B5,4.7
7,B6,102

# Target: T1, recombinant human OX40L protein (R&D …)
# Test: SPR steady state, Biacore T200; OX40L immobilised on CM5, FcFab in solution
# Protocol: Recombinant OX40L proteins (human OX40L protein, R&D systems, cat. #1054-OX; cynomolgus monkey OX40L, Novoprotein cat. #CP72) were immobilized onto Biacore CM5 sensor chips and anti-OX40L antibodies were bound to this surface at a range of concentrations. The response at steady state was measured with a Biacore T200 instrument (GE Healthcare) and plotted against the concentration of antibody and fit to a 1:1 binding model. The steady state KD was determined as the antibody concentration at a response equal to half the maximal response (Rₘₐₓ).
# As with the IgG clones, binding affinity to human OX40L was determined for all twelve FcFabs using steady state affinity assay as described in section 1.1.7 of Example 1. […]
row,Binder,Kd [nM]
1,B1,64.1
2,B7,27.8
3,B2,33.1
4,B3,56
5,B4,33
6,B5,44.8
7,B6,35.5
